# Laboratory results as given in PMC9646914, “Nicking mechanism underlying the DNA phosphorothioate-sensing antiphage defense by SspE” (Nature Communications, 2022).
# Assays:
# [1] = test system: SspE (Streptomyces yokosukanensis DSM 40224); assay: MST; conditions: EMSA: 10 mM Tris-HCl pH 8.0 (20 mM in Fig 3 legend), 100 mM NaCl, 0.01 mM EDTA, 5% glycerol, 15 min 30 C, MST: 10 mM Tris-HCl pH 8.0, 100 mM NaCl, 12.5 nM DNA …
# SspE = biological target: T1, SspE (Streptomyces yokosukanensis, UniProt A0A6I8WFL9); assay: malachite green phosphate release (QuantiChrom ATPase/GTPase kit); assay type: biochemical; conditions: 100 uM GTP, 1 uM protein, alone or with 1 uM 40-bp DNA with or without phosphorothioate; Mg acetate 10 mM, pH 7.9, 28 C
# T1 construct: full length, 771 residues (2,313-bp gene); NTD 1-324 GTPase (DGQQR motif 96-100), CTD 332-771 HNH nickase; expressed in E. coli BL21(DE3), Ni-NTA and Superdex 200
# T1 sequence (A0A6I8WFL9 entry or part of it): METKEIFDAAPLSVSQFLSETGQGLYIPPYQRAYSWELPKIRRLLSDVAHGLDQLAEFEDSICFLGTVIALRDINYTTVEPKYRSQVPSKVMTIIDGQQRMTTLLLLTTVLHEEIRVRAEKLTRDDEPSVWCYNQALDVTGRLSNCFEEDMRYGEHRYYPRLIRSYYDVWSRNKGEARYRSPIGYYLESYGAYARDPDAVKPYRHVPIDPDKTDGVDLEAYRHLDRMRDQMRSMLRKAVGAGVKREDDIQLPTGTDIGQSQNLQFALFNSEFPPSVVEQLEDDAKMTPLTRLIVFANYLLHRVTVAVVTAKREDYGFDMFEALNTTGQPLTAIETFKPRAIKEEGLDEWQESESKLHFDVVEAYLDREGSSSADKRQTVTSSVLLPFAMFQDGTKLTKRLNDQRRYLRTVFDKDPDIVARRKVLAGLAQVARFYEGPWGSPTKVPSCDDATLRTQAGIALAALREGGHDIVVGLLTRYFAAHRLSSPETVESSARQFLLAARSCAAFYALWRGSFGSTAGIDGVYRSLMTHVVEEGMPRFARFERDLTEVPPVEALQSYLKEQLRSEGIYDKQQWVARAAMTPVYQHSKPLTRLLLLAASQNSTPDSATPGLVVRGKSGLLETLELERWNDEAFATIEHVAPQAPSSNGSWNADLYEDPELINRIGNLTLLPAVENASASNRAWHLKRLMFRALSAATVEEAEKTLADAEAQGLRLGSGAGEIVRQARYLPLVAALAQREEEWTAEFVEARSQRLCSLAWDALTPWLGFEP
# [2] = test system: SspE (Streptomyces yokosukanensis DSM 40224); assay: EMSA; conditions: EMSA: 10 mM Tris-HCl pH 8.0 (20 mM in Fig 3 legend), 100 mM NaCl, 0.01 mM EDTA, 5% glycerol, 15 min 30 C; MST: 10 mM Tris-HCl pH 8.0, 100 mM NaCl, 12.5 nM DNA …
# [3] = test system: SspE K40A (Streptomyces yokosukanensis DSM 40224); assay: EMSA; conditions: EMSA: 10 mM Tris-HCl pH 8.0 (20 mM in Fig 3 legend), 100 mM NaCl, 0.01 mM EDTA, 5% glycerol, 15 min 30 C; MST: 10 mM Tris-HCl pH 8.0, 100 mM NaCl, 12.5 nM DNA …
# [4] = test system: SspE-CTD (Streptomyces yokosukanensis DSM 40224); assay: EMSA; conditions: EMSA: 10 mM Tris-HCl pH 8.0 (20 mM in Fig 3 legend), 100 mM NaCl, 0.01 mM EDTA, 5% glycerol, 15 min 30 C; MST: 10 mM Tris-HCl pH 8.0, 100 mM NaCl, 12.5 nM DNA …
compound,measurement,setting,value
2-kb PT DNA (CpsCA at both termini),Kd,[1]; phosphorothioate C12-C13 of primer #7 and C17-C18 of primer #8,8.5 µM
Nc1nc2c(ncn2[C@@H]2O[C@H](COP(=O)(O)OP(=O)(O)OP(=O)(O)O)[C@@H](O)[C@H]2O)c(=O)[nH]1 [GTP],GTPase activity,SspE,The GTP hydrolysis activity of SspE and its mutants was assayed
linearized pUC19,Kd,[2],17.8 µM
same,Kd,[3],22.2 µM
same,Kd,[4],3 µM
2-kb non-PT DNA (CCA),Kd,[1],18.4 µM
